Columns and labels:
[1] = target: His239 (UniProt position 239, …); experiment: potentiometry; details: 298 K; 0.1 M (NaClO4); none (4 mM HClO4, titrated with carbonate-free NaOH); metal-free peptide, 0.5 mM, argon atmosphere
[2] = target: His224 (UniProt position 224, …); experiment: potentiometry; details: 298 K; 0.1 M (NaClO4); none (4 mM HClO4, titrated with carbonate-free NaOH); metal-free peptide, 0.5 mM, argon atmosphere

Question: For GHFTVNPEIQPGAQRLHE, which pKa [1] is on record?
Answer: The pKa was 6.16.

Question: What about the pKa [2] of the same protein?
Answer: Its pKa is 6.76.

— article PMC7467640
